Drawing on patent US8759300, this text covers Kd for nine substances.

For experiment [1], the target named is platelet-derived growth factor-BB (PDGF-BB) (human) (UniProt P01127). In words: equilibrium binding.
Experiment [2] has as its target transforming growth factor-β1 (TGF-β1) (human) (UniProt P01137). In words: equilibrium or kinetic binding, not said which.
Experiment [3] concerns the target platelet-derived growth factor-BB (PDGF-BB) (human) (UniProt P01127). Briefly: method not restated in the sentence (paragraph: plasmon resonance modulation).
Target sequence in this assay (P01127 82-190 limits assumed): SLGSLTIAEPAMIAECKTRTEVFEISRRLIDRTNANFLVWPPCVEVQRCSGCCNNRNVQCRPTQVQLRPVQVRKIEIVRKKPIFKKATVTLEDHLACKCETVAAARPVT
Experiment [4] deals with transforming growth factor-β1 (TGF-β1) (human) (UniProt P01137). The experiment is described as above.
Target sequence in this assay (P01137 279-390 limits assumed): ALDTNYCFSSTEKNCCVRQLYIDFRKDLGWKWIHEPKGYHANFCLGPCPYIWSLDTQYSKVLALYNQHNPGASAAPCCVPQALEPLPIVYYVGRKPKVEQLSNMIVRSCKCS
The target in experiment [5] is platelet-derived growth factor-BB (PDGF-BB) (human) (UniProt P01127). In words: method not restated in the sentence.
Target sequence in this assay (P01127 82-190 limits assumed): as the sequence (P01127 82-190 limits assumed) above
Experiment [6] has as its target transforming growth factor-β1 (TGF-β1) (human) (UniProt P01137). Briefly: method not restated in the sentence.
Target sequence in this assay (P01137 279-390 limits assumed): as the sequence (P01137 279-390 limits assumed) above
Experiment [7] has as its target vascular endothelial growth factor A (VEGF-A) (human) (UniProt P15692). Briefly: method not restated in the sentence.
Experiment [8] concerns the target platelet-derived growth factor-BB (PDGF-BB) (human) (UniProt P01127). In words: surface plasmon resonance, kinetic.
Target sequence in this assay (P01127 82-190 limits assumed): as the sequence (P01127 82-190 limits assumed) above
Experiment [9] has as its target transforming growth factor-β1 (TGF-β1) (human) (UniProt P01137). In words: equilibrium binding; equilibrium binding.
Target sequence in this assay (P01137 279-390 limits assumed): as the sequence (P01137 279-390 limits assumed) above
Experiment [10] has as its target platelet-derived growth factor-BB (PDGF-BB) (human) (UniProt P01127). In words: plasmon resonance modulation; plasmon resonance.
Target sequence in this assay (P01127 82-190 limits assumed): as the sequence (P01127 82-190 limits assumed) above
For experiment [11], the target named is transforming growth factor-β1 (TGF-β1) (human) (UniProt P01137). Briefly: plasmon resonance modulation; plasmon resonance.
Target sequence in this assay (P01137 279-390 limits assumed): as the sequence (P01137 279-390 limits assumed) above
Experiment [12] addresses vascular endothelial growth factor A (VEGF-A) (human) (UniProt P15692). In words: plasmon resonance modulation; plasmon resonance.
In experiment [13] the target is transforming growth factor-β1 (TGF-β1) (human) (UniProt P01137). In words: surface plasmon resonance, kinetic; kinetic, plasmon surface resonance.
Target sequence in this assay (P01137 279-390 limits assumed): as above
Experiment [14] deals with platelet-derived growth factor-BB (PDGF-BB) (human) (UniProt P01127). In words: surface plasmon resonance.
Experiment [15] shares this target. Briefly: equilibrium binding to FN adsorbed to a surface or coupled to agarose beads.
The target in experiment [16] is transforming growth factor-β1 (TGF-β1) (human) (UniProt P01137). The description is as above.
Experiment [17] deals with platelet-derived growth factor-BB (PDGF-BB) (human) (UniProt P01127). Briefly: radiolabeled GF binding to intact FN, non linear regression; radiolabeled GF, intact FN.
For experiment [18], the target named is transforming growth factor-β1 (TGF-β1) (human) (UniProt P01137). Described as above.

FNIII12-14, sequence (P02751 other isoform, or with tags, fused parts or gaps limits assumed): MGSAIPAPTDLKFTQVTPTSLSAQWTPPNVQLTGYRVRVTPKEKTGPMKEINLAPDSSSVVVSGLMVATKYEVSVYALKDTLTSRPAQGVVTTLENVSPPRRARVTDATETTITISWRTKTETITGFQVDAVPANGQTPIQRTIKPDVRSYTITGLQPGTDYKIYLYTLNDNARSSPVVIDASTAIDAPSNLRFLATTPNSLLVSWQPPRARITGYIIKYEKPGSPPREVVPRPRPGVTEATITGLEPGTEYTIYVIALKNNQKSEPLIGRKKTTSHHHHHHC
FNIII12-V15 (HV), composite heparinII-binding and variably-spliced IIICS domains of fibronectin, sequence (P02751 other isoform, or with tags, fused parts or gaps limits assumed): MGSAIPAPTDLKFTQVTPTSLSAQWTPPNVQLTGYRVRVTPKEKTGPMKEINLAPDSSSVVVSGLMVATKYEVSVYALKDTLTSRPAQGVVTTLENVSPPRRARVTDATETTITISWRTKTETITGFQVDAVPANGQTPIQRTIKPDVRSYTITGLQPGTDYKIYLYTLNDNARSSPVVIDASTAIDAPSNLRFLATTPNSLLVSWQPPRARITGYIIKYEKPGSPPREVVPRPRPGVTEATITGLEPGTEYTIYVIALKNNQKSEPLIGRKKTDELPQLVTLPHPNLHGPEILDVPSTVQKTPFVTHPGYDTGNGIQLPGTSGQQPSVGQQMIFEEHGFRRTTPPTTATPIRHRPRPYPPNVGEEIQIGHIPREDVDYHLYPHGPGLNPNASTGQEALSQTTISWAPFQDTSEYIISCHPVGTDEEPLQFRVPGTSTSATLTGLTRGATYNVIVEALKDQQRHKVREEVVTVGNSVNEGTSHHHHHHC
FNIII12-15 (H), heparinII-binding domain of fibronectin, sequence (P02751 other isoform, or with tags, fused parts or gaps limits assumed): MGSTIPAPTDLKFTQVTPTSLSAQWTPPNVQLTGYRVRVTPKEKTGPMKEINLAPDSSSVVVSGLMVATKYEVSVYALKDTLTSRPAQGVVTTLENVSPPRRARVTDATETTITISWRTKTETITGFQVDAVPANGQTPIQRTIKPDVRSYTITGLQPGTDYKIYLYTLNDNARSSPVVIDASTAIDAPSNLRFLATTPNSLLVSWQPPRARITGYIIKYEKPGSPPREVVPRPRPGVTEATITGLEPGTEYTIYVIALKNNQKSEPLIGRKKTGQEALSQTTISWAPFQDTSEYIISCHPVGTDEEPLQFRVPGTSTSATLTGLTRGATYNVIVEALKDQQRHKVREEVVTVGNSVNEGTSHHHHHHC
IIICS, variably-spliced domain of fibronectin, sequence (P02751 other isoform, or with tags, fused parts or gaps limits assumed): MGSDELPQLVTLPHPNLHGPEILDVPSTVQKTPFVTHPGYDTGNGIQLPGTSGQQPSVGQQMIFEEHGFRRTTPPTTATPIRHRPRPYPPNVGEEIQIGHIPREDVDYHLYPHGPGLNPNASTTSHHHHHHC
FNIII1-7, sequence (P02751 other isoform, or with tags, fused parts or gaps limits assumed): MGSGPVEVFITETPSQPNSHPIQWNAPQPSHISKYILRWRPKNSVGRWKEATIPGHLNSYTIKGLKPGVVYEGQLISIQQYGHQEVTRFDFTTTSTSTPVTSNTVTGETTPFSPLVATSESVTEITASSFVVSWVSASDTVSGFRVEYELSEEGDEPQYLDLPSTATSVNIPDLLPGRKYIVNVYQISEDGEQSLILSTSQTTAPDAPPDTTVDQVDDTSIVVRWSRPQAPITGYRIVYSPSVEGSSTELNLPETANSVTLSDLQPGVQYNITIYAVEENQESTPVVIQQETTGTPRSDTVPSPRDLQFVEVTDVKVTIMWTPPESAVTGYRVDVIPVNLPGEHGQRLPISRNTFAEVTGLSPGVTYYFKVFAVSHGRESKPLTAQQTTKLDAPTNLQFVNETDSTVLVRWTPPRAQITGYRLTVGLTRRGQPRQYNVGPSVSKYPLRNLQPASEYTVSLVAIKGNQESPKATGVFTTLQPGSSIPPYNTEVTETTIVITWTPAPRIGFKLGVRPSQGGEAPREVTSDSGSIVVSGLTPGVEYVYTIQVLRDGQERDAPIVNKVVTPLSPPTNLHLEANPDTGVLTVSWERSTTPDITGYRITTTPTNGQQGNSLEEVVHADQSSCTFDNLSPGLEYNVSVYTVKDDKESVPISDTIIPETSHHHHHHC
vascular endothelial growth factor A (VEGF-A) (human), sequence (P15692 other isoform, or with tags, fused parts or gaps limits assumed): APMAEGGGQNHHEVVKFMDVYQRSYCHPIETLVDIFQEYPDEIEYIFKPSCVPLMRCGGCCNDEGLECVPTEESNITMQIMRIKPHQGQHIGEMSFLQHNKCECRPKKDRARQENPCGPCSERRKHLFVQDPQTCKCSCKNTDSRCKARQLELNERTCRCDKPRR
FNIII12-13, sequence (P02751 other isoform, or with tags, fused parts or gaps limits assumed): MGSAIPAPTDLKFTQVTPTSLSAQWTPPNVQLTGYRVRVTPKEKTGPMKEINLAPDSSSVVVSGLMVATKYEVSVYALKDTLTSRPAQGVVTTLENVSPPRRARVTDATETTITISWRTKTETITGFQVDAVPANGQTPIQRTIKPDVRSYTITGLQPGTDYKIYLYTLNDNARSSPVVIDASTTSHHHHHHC

On to “FNIII12-14 (from UniProt P02751 1812-2082)”, for which the equilibrium dissociation constant (Kd) was found to be 35 nM in experiment [1], 7.6 nM in [2], 55 nM in experiment [3] and 7.6 nM in experiment [4].
“FNIII12-15 (H), heparinII-binding domain of fibronectin (from UniProt P02751 1631-1987)”: the Kd in experiment [1] came out at 6.8 nM; in experiment [2], 16 nM; in experiment [3], 6.8 nM; in [4] it was 16 nM.
As for “IIICS, variably-spliced domain of fibronectin (from UniProt P02751 2083-2202)”, the Kd came to 350 nM in [1]; 100 nM in [5]; 100 nM in experiment [6]; 100 nM in [7]; 74 nM in experiment [2].
With “FNIII12-V15 (HV), composite heparinII-binding and variably-spliced IIICS domains of fibronectin (from UniProt P02751 1812-2288)”, the Kd worked out at 21 nM in experiment [1]; 17 nM in experiment [8]; 97 nM in experiment [9]; 17 nM in [10]; 2.5 nM in experiment [11]; 0.6 nM in experiment [12]. This substance displayed an equilibrium dissociation constant (Kd) in [13] of 25 nM.
As to “FNIII12-13 (from UniProt P02751 1812-1992)”, in experiment [1], the Kd is 75 nM.
As to FNIII1-7 (from UniProt P02751 610-1266), the Kd was determined as 75 nM in experiment [1], 100 nM in experiment [8], 17 nM in experiment [9] and 18 nM in [13].
On to FNIII1 (from UniProt P02751 610-702), for which the values for the Kd in experiment [1], in experiment [14] and in experiment [2] were 32 nM, 370 nM and 6.2 nM, respectively.
For the substance FNIII1-2 (from UniProt P02751 610-812), the values for the Kd in experiment [1] and in experiment [14] were 37 nM and 9.1 nM, respectively.
Take “intact human plasma fibronectin (FN) (from UniProt P02751 32-2477)”: the Kd in experiment [15] was determined as 49 nM; in [16], 53 nM; in [17], 49 nM; in experiment [18], 53 nM.
